Measured values reported in the supplement of paper PMC10126150.
± gives the standard deviation of the averaged measurements.

Test system: ATP
Experiment: switch fluorescence ratio, 500 uM ATP over buffer (Cy3 cluster intensity, sum of 5 cycles each) (fold (ratio)); higher = stronger signal-on switching upon ATP binding; sequences stand for … in TCGTCGGCAGCGTCAGATGTGTATAAGAGACAGTTTTTTTTTTTTTTTTTTTTTTTTT…TC
Conditions: aptamer strand: ATP DNA aptamer (quencher-CACCTGGGGGAGTATTGCGGAGGAAGG + anchor), 100 nM annealed; ATP concentration: 500 uM
Outline: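 For every switch-domain sequence, the fluorescence ratio is the mean of per-cluster values, each being summed target-cycle Cy3 intensity over summed buffer-cycle Cy3 intensity. Clusters outside 100-1000 RFU were excluded. On a modified Illumina MiSeq flow-cell, the Cy3-labelled switching-strand clusters were annealed to 100 nM quencher-labelled ATP aptamer, imaged in selection buffer and then after 15 min with 500 uM ATP at 22 °C. Five such cycles were run, with NaOH stripping and re-annealing between them.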
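Note: ATP exposure 15 min at 22 °C before imaging.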

Sequence	switch fluorescence ratio
AGCAAATGGT	1.07 ± 0.051
AGCAACATAA	1.13 ± 0.022
AGCAACATTA	1.06 ± 0.025
AGCAACCCCG	1.22 ± 0.17
AGCAAGGCGT	1.03 ± 0.043
AGCAAGGGGG	1.09 ± 0.11
AGCAATGTCT	1.26 ± 0.065
AGCAATTTTT	1.1 ± 0.034
AGCACGGGTA	1.008 ± 0.0055
AGCACTGCTG	1.01 ± 0.014
AGCAGAAGGA	1.02 ± 0.015
AGCAGCTAAG	0.995 ± 0.01
AGCAGCTGGG	1.01 ± 0.012
AGCAGGGGCT	1.025 ± 0.0069
AGCAGGGGGG	1.06 ± 0.067
AGCAGGGGTA	1.17 ± 0.26
AGCAGTTCGG	1 ± 0.036
AGCATACCTT	1.11 ± 0.17
AGCATAGCAT	1.01 ± 0.019
AGCATGGTAT	1 ± 0.04
AGCCAGTTTT	0.9892 ± 0.0073
AGCCATTTTG	1.02 ± 0.022
AGCCCGCGCA	1.03 ± 0.028
AGCCGAGTTC	1.01 ± 0.049
AGCCGGATCA	0.9931 ± 0.0056

Sequence	switch fluorescence ratio
AGCCGGGTAG	1.053 ± 0.0086
AGCCTTATCC	1.09 ± 0.02
AGCCTTTTTG	0.992 ± 0.042
AGCGAAATCA	1 ± 0.078
AGCGAAGATG	1 ± 0.033
AGCGAAGCTG	1.01 ± 0.011
AGCGACCGTT	1.032 ± 0.0078
AGCGACGTTT	0.9647 ± 0.0064
AGCGAGTGTG	1 ± 0.026
AGCGATAGTC	1.56 ± 0.024
AGCGATAGTT	1.1 ± 0.038
AGCGATCGGT	1.03 ± 0.014
AGCGATGCTT	1.133 ± 0.011
AGCGATTTAT	1.03 ± 0.0079
AGCGCGAATG	1.01 ± 0.018
AGCGCTGCCT	0.996 ± 0.031
AGCGCTTGTG	1.02 ± 0.038
AGCGGGGGTT	0.9996 ± 0.0055
AGCGGGTCCG	0.987 ± 0.017
AGCGGTCAGT	0.9776 ± 0.0075
AGCGGTCTGG	1 ± 0.013
AGCGTAGTCA	0.9868 ± 0.0021
AGCGTATGTG	1.02 ± 0.062
AGCGTTAGTG	1.06 ± 0.013
AGCGTTCTGG	1.04 ± 0.041
